# Results reported in doi:10.1101/868190 (bioRxiv, 2019).
# Ends that are not written are not given here.
# T1: His-hPPARγ (231-505) ligand-binding domain, wild-type (human, UniProt P37231-1 231-505)
# T1 sequence: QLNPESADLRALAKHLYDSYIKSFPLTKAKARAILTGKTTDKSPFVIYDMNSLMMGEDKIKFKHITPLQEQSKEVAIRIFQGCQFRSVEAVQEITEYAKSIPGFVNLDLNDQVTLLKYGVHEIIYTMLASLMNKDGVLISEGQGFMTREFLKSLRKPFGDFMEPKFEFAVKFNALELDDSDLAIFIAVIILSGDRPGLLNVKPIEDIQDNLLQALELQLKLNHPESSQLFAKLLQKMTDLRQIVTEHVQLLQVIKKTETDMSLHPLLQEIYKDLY
# Target: T1, His-hPPARγ (231-505) ligand-binding …
# Assay: MST
row,binding result,Binder
1,binds,"NLGLEDIIRKALMG (also: fluorescent label, dye and position not given here) [fluorescent NCoR1 peptide (2260-NLGLEDIIRKALMG-2273)]"
2,binds,"EAEEPSLLKKLLLAPA (also: fluorescent label, dye and position not given here) [fluorescent PGC1α peptide (137-EAEEPSLLKKLLLAPA-152)]"
